Laboratory results from patent US11506662B2, “Detection, identification, and purification of degradative and non-degradative enzymes in biological samples” (The Regents of the University of California, priority 2016, dated 2022).
Values belong to the molecule of their own block, whether it stands above or below them. Starred links: 1 amine or outer side, 2 acyl side, 3 side chain; linkers in the order of their positions; H or OH if unused. Non-standard residues stand in square brackets, D forms with d. *: point of attachment. BFL = BODIPY FL (diaminoethyl-BODIPY FL label), CC1=CC(C)=[N+]2C1=Cc1ccc(CCC(=O)NCCN*)n1[B-]2(F)F; diaminoethyl = diaminoethyl linker to BODIPY FL label; Suc = O=C(CCC(=O)[*:2])[*:1]; Cy5 = Cy5 fluorescent dye; Nle = CCCC[C@H](N)C(=O)O

What was measured:
Type in all cases: biochemical
[1] = biological target: T1, thrombin (Homo sapiens, UniProt P00734); assay: Thrombin detection using thrombin-specific charge-changing peptide substrate in 1×PBS or citrated blood; settings: 0-100 nM
T1 construct: from tissue; host or cells: whole blood of subjects
Experimental: Various concentrations (0 nM, 0.5 nM, 5 nM, 10 nM, 20 nM, or 100 nM) of the thrombin targeted charge-changing peptide shown in FIG. 9 (and with the sequence Ac-N-D^−-D^−-Nle-T-P-R^+//G-S-A-G-A-G-A-G-diamino-ethyl-BFL (SEQ ID NO:1)) was incubated in either 1×PBS (FIG. 10A) or citrated blood (FIG. 10B), both of which contained thrombin. After incubation, fluorescence was measured, indicating specific binding of the peptide to the thrombin in the sample.

[2] = biological target: T1, thrombin; assay: Whole blood thrombin detection with charge-changing peptide; settings: untreated whole blood
Experimental: The thrombin targeted charge-changing peptide shown in FIG. 9 (and with the sequence Ac-N-D^−-D^−-Nle-T-P-R^+//G-S-A-G-A-G-A-G-diamino-ethyl-BFL (SEQ ID NO:1)) was incubated in untreated whole blood for up to 33 minutes. A negative control was also prepared See FIG. 11A. Fluorescence was measured at 3 minute intervals during incubation.

[3] = biological target: T1, thrombin; assay: Coagulation monitoring: thrombin activity in whole blood of subjects taking anticoagulant vs control
Experimental: To detect thrombin activity and monitor coagulation, the thrombin targeted charge-changing peptide shown in FIG. 9 (and with the sequence of Ac-N-D^−-D^−-Nle-T-P-R^+//G-S-A-G-A-G-A-G-diamino-ethyl-BFL (SEQ ID NO:1)) was incubated in a drop of whole blood from subjects taking an anticoagulant (aspirin) and from control subjects that were not taking an anticoagulant. Fluorescence signal, indicating specific binding of the peptide to thrombin in the whole blood sample, was measured at various time points up to 30 minutes.

[4] = biological target: cathepsin-S (Homo sapiens, UniProt P25774); assay: Cathepsin-S detection in buffer with charge-changing peptide; settings: 1×PBS buffer with varying concentrations of cathepsin-S
Chain of cathepsin-S (P25774 115-331, species assumed): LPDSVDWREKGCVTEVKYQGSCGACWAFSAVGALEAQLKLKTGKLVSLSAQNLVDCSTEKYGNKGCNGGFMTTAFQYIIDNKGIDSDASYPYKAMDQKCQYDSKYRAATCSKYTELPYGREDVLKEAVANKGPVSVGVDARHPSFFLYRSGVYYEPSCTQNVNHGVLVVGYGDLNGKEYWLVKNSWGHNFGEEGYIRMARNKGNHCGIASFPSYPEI
Experimental: The cathepsin-S targeted charge-changing peptide shown in FIG. 9 (and with the sequence N-SUC^−-E^−-G-R^+-W-H-T-V-G//L-R^+-W-E^−-C(Cy5^−)-R^+CO-NH2 (SEQ ID NO:5)) was incubated in 1×PBS buffer with varying concentrations of cathepsin-S. After incubation, fluorescence was measured, indicating specific binding of the peptide to the cathepsin-S in the sample.

Time of peak fluorescence values ([2]; incubation up to 33 minutes): about 18 minutes
Fluorescence signal during incubation ([2]; up to 33 minutes, measured at 3 minute intervals): increased over time
Molecule: Ac-N-D^−-D^−-Nle-T-P-R^+//G-S-A-G-A-G-A-G-diamino-ethyl-BFL (Ac-NDD[Nle]TPRGSAGAGAG-{diaminoethyl-BFL}) [SEQ ID NO:1, thrombin targeted charge-changing fluorescent peptide substrate]
Fluorescence after incubation ([1]; 1×PBS containing thrombin): Fluorescence increased with increasing thrombin concentration
Fluorescence after incubation ([1]; citrated blood containing thrombin): Fluorescence increased with increasing thrombin concentration
Fluorescence signal (thrombin activity) over time ([3]; drop of whole blood, time points up to 30 minutes, both subject groups): increased in both subject groups over time

Rate of fluorescence increase (thrombin activity), anticoagulant subjects vs control ([3]; whole blood from subjects taking aspirin vs subjects not taking an anticoagulant, up to 30 minutes): more quickly in the control group
Molecule: CC(=O)Oc1ccccc1C(=O)O [aspirin, reference compound]

Molecule: N-SUC^−-E^−G-R^+-W-H-T-V-G//L-R^+-W-E^−-C(Cy5^−)-R^+-CO-NH2 (Suc-EGRWHTVGLRWEC(Cy5)R-NH2) [SEQ ID NO:5, cathepsin-S targeted charge-changing fluorescent peptide substrate]
Fluorescence after incubation [4]: Fluorescence increased with increasing cathepsin-S concentration
